Test [1] concerns the target T1, human VEGFR2 on PAE/KDR cells (human, UniProt P35968 20-1356).
T1 construct: VEGFR2 (KDR), human, stably expressed on porcine aortic endothelial cells; also called vascular endothelial growth factor receptor 2; source: porcine aortic endothelial (PAE) cells stably transfected to express human VEGFR2 (PAE/KDR cells), on cells
The test can be described thus: flow cytometry on cells; soluble FLAG-tagged scVEGF variants titrated on 50,000 PAE/KDR cells in integrin binding buffer (20 mM Tris pH 7.5, 100 mM NaCl, 1 mM MgCl2, 1 mM MnCl2, 2 mM CaCl2, 1 mg/ml BSA), 4°C, 4–6 hr; phycoerythrin anti-FLAG antibody; sigmoidal fit of mean fluorescence. As to conditions: one partner purified.

The target of a further test is T2, VEGFR2 on HUVECs (human (endogenous in HUVECs), UniProt P35968 20-1356).
T2 construct: VEGFR2, endogenous on HUVECs; HUVECs also bear αvβ3 integrin; source: endogenous, on human umbilical vein endothelial cells (HUVECs)
T2 sequence (P35968 20-1356): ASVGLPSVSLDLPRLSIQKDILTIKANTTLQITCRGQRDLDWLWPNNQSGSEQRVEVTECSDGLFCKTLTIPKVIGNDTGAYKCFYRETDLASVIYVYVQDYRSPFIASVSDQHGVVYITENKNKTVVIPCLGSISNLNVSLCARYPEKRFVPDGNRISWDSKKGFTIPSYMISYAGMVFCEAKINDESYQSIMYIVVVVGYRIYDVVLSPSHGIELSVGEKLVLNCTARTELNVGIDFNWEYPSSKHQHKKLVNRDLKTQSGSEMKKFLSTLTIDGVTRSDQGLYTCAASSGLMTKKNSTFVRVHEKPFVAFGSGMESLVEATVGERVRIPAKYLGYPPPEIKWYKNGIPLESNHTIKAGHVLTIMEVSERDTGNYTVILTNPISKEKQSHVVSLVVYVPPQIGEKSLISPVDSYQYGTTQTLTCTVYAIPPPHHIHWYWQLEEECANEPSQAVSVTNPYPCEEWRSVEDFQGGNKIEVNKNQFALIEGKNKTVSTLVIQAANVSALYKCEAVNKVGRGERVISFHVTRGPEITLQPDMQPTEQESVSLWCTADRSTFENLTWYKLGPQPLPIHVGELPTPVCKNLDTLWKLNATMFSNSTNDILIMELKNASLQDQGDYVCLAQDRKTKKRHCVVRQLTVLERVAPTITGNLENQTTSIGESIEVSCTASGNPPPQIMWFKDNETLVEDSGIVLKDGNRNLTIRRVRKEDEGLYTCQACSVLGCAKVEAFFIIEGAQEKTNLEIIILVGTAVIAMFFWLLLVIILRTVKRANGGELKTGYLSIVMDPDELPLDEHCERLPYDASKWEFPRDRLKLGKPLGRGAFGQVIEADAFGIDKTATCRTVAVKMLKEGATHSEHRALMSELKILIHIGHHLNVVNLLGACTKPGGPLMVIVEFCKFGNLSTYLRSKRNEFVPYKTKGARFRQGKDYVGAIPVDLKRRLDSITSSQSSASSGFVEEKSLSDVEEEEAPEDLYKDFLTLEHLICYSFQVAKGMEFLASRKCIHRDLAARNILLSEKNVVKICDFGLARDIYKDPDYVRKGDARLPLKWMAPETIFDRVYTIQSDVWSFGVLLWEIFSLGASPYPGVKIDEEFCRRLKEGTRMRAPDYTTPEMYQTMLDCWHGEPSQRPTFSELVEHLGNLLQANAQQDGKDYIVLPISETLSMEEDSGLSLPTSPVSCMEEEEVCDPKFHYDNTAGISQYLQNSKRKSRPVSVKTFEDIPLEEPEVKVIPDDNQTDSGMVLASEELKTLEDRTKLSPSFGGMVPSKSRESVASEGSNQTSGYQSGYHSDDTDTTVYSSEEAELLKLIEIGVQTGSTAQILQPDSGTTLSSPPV
Nature of the test: flow cytometry on cells; apparent; soluble FLAG-tagged scVEGF variants titrated on 50,000 serum-starved HUVECs (bear VEGFR2 and αvβ3 integrin) in integrin binding buffer, 4°C, 4–6 hr; phycoerythrin anti-FLAG antibody; sigmoidal fit. To be noted: one partner purified.

T1 sequence (P35968 20-1356): as above

B1: scVEGFmut (ligand)
chain: APMAEGGGQNHHEVVKAMDVYQRSYCHPIETLVDIFQEYPDEIEYIFKPSCVPLMRCGGCCNDAGLECVPTEESNITMQIMRIKPHQGQHIGEMSFLQHNKCECRPKKDGSTSGSGKSSEGKGAPMAEGGGQNHHEVVKFMDVYQRSYCHPIETLVDIFQEYPDEIEYAFKPSCVPLMRCGGCCNDEGLECVPTEESNITMQIMRAKPHQGQHIGEMSFLQHNKCECRPKKD
In test [1], B1 displayed a Kd of 27 nM. For the same molecule, in the test with VEGFR2 on HUVECs, the “fold tighter binding of scVEGFmE7I than of scVEGFmut” value is at least 330 fold.

B2: scVEGFwt (ligand)
chain: APMAEGGGQNHHEVVKFMDVYQRSYCHPIETLVDIFQEYPDEIEYIFKPSCVPLMRCGGCCNDEGLECVPTEESNITMQIMRIKPHQGQHIGEMSFLQHNKCECRPKKDGSTSGSGKSSEGKGAPMAEGGGQNHHEVVKFMDVYQRSYCHPIETLVDIFQEYPDEIEYIFKPSCVPLMRCGGCCNDEGLECVPTEESNITMQIMRIKPHQGQHIGEMSFLQHNKCECRPKKD
Take B2: the Kd with VEGFR2 on HUVECs was 3.8 nM.

The values above are taken from paper PMC5412928, “Engineered ligand‐based VEGFR antagonists with increased receptor binding affinity more effectively inhibit angiogenesis” (Bioengineering & Translational Medicine, 2017).
